assay: soluble on expression in E. coli; label from the status in PepcDB or PDB records

Row | Sequence | soluble on expression in E. coli
1 | MGSDKIHHHHHHMISQNRLRVLARELGVRQGYAEKNYVNSWILWGIFTSDFGENLMFKGGTALSKLYFPQSWRFSEDLDFGVEGQYNGSEDDLRDVLDTVTERSGIEFTISEHHESRQQHYPTHYVDMSIQYRAVLDHPNTTSLDVMVDEYVAFDSVHHTHSYEDIPEFELQAYSVEEIFAEKLRAIFQRGAARDYYDLYQLLETESVEIEFDVVLPAFEAKCDHDDLDVDLTTGLPGDQREDIQRQWETSLPDLTGDPPLFDTVWKRLDEAVIDKGTE | not soluble
2 | MGSDKIHHHHHHLIRGLYTAGAGMMLQMARQDVVANNLANVNTSGFKKNTAVAKAFPDMLISRLGECKEDKQGQLKVQSPVVIGRLGTGASISGIYTDFDNNNLKKTDSPCDLAITGAGYFVVQTPEGQRFTRCGEFKINSEGILTTNSGYPVLDSNDSPITIEGEFLIDEQGNINVDGENITRLKIVNFNDLQILERLGDNLLNSPEEPYVMERPEMLQGYIEQSNVNAVKEMVTLISVVRAYESLQKMVQAEDEIMGQAIDKVGSIN | not soluble
3 | MGSDKIHHHHHHMKLPANQEKNQPVPVVKPSSTLEEINQNAAGIDLGSGEHWVCVPPDRADKNVRRFGCFTPDLIAMADWLKECRINTVAMEATGVYWIPVFQVLEAKGFEVKLVNAHHVKTVPGRKTDVLDCQWLQKLHTYGLLSGSFRPEDQVCVLRSYIRQRDTLIKSASAHIQRMQKALIQMNLHLHKVISDVTGLTGMKIIKAIVAGEQDPQVLASLKDPHIKSSTADIAASLTGDYRREHLFVLQQELTLYEIYQQQIIAVDAEIEKCLAYA | not soluble
4 | MGSDKIHHHHHHMPTILEHLAALFDKDMRAVLSNPRAISMIANPSARVQMAAVRRDRSVICFIEKPTEKVQLTAVRNAPHNIHFITSPSERVQLTVIGIRPSYVGFIPNPTEKVQLKAVEKRPECIFLLQKPAEKVQLTAVLKDPRYLSAIREPTEKVQLAAVQKNPECIRHIAEPTEKVQHMAVQRSPDIFRQIRQPEESVRLAAVQAKGENIRYVSAPSEAVQLAAVRNDPMNIRYIENPTEKVQSVVLNADRDAAPFISSPTEEIKRLAMEMYGLRLENAAGKEAAAARTSETSGNSGKKATEGVAKKPSAKQVKEAVEKLDSEIREINREYFQATYEAQYSDNAAERESEISAAGKNREKKLVKAYEKFNSAAVPERKECNVGKIVKELRKERVAVENMKAGEWHSLMKGKAVQPPLVSGASGAAGKGSALMLARTPAGYALKAAGTINQASRQANAEM | not soluble
5 | MDDIRKIERLAAASWPAYFQKSIGKWLLRANFGVTKRANSVWTSADMPEGDFQLEAELFYQSLGLPVCFHISNASPKGLDDALADSRYEKVDECFQMTALCRSIMSRTNDNSRFTYKWEQEPSSVWIDEFIQLEGFSPERHKGYKHIFERMPPCKTFFKMYDKESLTALGTVSVIDGYGGLSNIVVAEEHRGKGAGTQVIRVLTEWAKNNGAERMFLQVMKENLAAVSLYGKIGFSPISEHHYRIKRLEHHHHHH | not soluble
6 | QAAELEITVTNATKGIYFTPLIVAAHDSDLHMFKVGESATAELEAMAEGGDISGLSTVIGNAGGAVVENPAGGILNPGAATTFTLDSGDHG | not soluble
7 | MSKSGVPRLLTASERERLEPFIDQIHYSPRYADDEYEYRHVMLPKAMLKAIPTDYFNPETGTLRILQEEEWRGLGITQSLGWEMYEVHVPEPHILLFKREKDYQMKSQQRGG | soluble

Reference: the DeepSol protein solubility set
